The values below are quoted from earlier work in paper PMC7289715.

For this data set, the target named is Spike protein (SARS-CoV-2) (UniProt P0DTC2).

As for CD147 (from UniProt P35613), the Kd was 185 nM.

In general, Kd refers to the free concentration of one partner at which half of the binding sites on the other are occupied at equilibrium, for simple one-to-one binding.
